# Assay results taken from the DeepSol protein solubility set.
# Experiment: soluble on expression in E. coli; label from the status in PepcDB or PDB records
row,Sequence,soluble on expression in E. coli
1,MSLPRKIAYEIPKNWARSNHWLMKTIVGTTFEIEGLENIPETGCIFAPKHQSFWDTYALLPNLPDPVYILKRELLWIPLFGWYAMKQRMIPVNRAARGKVMLKVMERAKEEMAAGRELIIYPEGTRRPPGAEPEYRYGIARLYRDLQVPVIPVAMHPGLFWPRRSTMRYPGHFKVRILPAIEPGLDPDVFFKRLIEVTEKASDELLLETARNNPHLPLPPTAVKRIAELQGKETTADEGHHHHHH,not soluble
2,MGHHHHHHSHMNGEIMDDSLKTSLITEEEDSTSEVLDEELKLQPFNSSEDSTNLVPLVVESSKPPEVDAPDKTPRIPDSEMLMDEGTSDEKGHMEEKLSLLPRKKAHLGSSDNVATMSNEERSDGGFPNSVIAEFSEEPVSENLSPNTTSSLEDQGEEGVSEPQETSTALPQSSLIEVELEDVPFSQNAGQKNQSEEQSEASSEQLDQFTQSAEKAVDSSSEEIEVEVPVVDRRNLRRKAKGHKGPAKKKAKLT,not soluble
3,MSLKIRQARLEDLDRIVELEFENFSVEEAIPPSVFEAHLREIQTSFLVAEKEGRIMGYIEGPVGLHRHLQDQSFTEEIKDYSHEPGGYISVTCLSIAKEAQGLGLGQKLLTALKEVALEDERDGINLTCHDYLIAYYEKHGFVNEGQSQSTFAGETWYDMVWEMKKEGHHHHHH,soluble
4,MFDPPALKNSVISFLNKRRHSSGGYTLYEGLPDSKNTYYAIRSFEVLDHEPPRLEETLDWLEDVHRGGTFAAQGLFYRCSILRDYGRNFEIPEKFTEMLRTSYRKSSLEITFYMDSVLRMHGEYLDEIPEWVLSIQNEDGGFGAYGSDIINTRFALEILNGHGMKIPGDEVLQFTDSCFSDGAWNFTPISYPPYIETVHSGFRINEILRGKVSDVTRFIMKIRNPDGGFRRSVYMGISEPEYTYRAIYMLASIHGW,not soluble
5,MGSDKIHHHHHHMIFSNLKLNDNEPIYIQLKNYISDMISKGLIPDNSKLPSTRELSQLLQVSRNSVVLTYEELKSEGLIYSISGKGTFVKSKNKSSNTTWSLNWDCLENTYSKKANELDIIKSEIPWSSDLISFKSISPDGDLFDMEELKKSFLNRISLEGHKLLNYGYAQGYKPLIDYLLEYMTNKGADISNKDILITNGFTEGFDIIMSSFTQEKDYIICENPTHNTAIKIMKSHNLNILGVDINEDGLDFNMLEDNLIKYKNKIKFAYITPSYHNPTGIVMTPENRYKFYNLMKKYNIAIIEDGFNEELLYNSSHIFPICSLDNMNNGVVYIGSFSKILFPGMRIGWIFADKKVINKLESVKRCRNIHVSFLDQGILFDYLSNGGFEKYIKKIRKFYGDKFNFAYKCIKKYIKTEYILGDGGLHIFIKLKNIDTRVLLEKCYEKNVIFMPGDLFFTDNSGFDTLRLGFSRLSFEDIEIGIKIIGETINEMF,not soluble
6,SGEIKVSPDYNWFRGTVPLKKIIVDDDDSKIWSLYDAGPRSIRCPLIFLPPVSGTADVFFRQILALTGWGYRVIALQYPVYWDHLEFCDGFRKLLDHLQLDKVHLFGASLGGFLAQKFAEYTHKSPRVHSLILCNSFSDTSIFNQTWTANSFWLMPAFMLKKIVLGNFSSGPVDPMMADAIDFMVDRLESLGQSELASRLTLNCQNSYVEPHKIRDIPVTIMDVFDQSALSTEAKEEMYKLYPNARRAHLKTGGNFPYLCRSAEVNLYVQIHLLQFHGTKYAAIDPSMVSAEELEVQKGSLGISQEEQ,soluble
7,MSLSMDTVNYRPSAYPAISLIEADYRQFAFERHYHLDIHIGLITQGVQRFYHQGAWHQVGQGGVVLMSPDELHDGHAHSNTGYQVQVFSIEPEWLQQTLEANQIEQVIGFEQLIVQDPTLFHSLQQLHHLLRQDNLSQLAKDCLPYQGFAPLLERYSYLKQPTVKPLGQHNLALLKEWVLSQLDQPIRLEQLAQLCQLSPTQFQRHFKAQTGLTPYAWLRRLRLEQAMKLLQSGKPGTDVAYQVGFYDQAHFSKAFKATYGLSPSLITRFSEGHHHHHH,not soluble
8,MSLTIDRIRALVSEDFNAVNNLIIDKIQSQVGLIQDLSQHIVESGGKRLRPLVVLLASNACGYKGKDHISLAAMVEFFHTATLLHDDVIDESTLRRGRQTANSIWGSKASVLVGDYLFTQSVNLMVEVGIKEILNLLANTSHQITCGEVKQLANRHNPALTLDDYFDVIRAKTALLFAAAACIGPILTNAPIELRNSLYNYGLHLGNAFQLIDDALDYCSDAATLGKNIGDDLADGKATLPLIHALQNGNATQQQQIRESLMKGSLSHLPDILIAIEQTEAIPFTKRIAAQEVDSALSALEILPDSVYKEALVDLAKFALERNYEGHHHHHH,soluble
9,MTPDLKTSPPPATLFSEDAEAIAKYLDESAKNGRDSGKNKSTQIRRFYDELVGWQERIGTDEQKFRDYAAFIHMLNAKAAYAQGRNLVTREFVQWLRDCIKQIDGPRTLNHFRLHFEAMIGFLKAIRG,not soluble
10,KEIIVNENDILLLWDGSNAGEIFLGKKGILSSTMVKLEQKNKIMDDLYLFYSLKLKESFLKSQTKGTGIPHVDKKIFENIKIPLPPLEEQKQIAKILSDFDN,not soluble
11,MGSDKIHHHHHHTYDYFEDETNYQVFVPEVLNKTVSDCRVLVYNDAGTLVGARYATSPWDKDPRMEAGLFSFRLTPGEYKVYCYTNTDSLTFVDGQHLDASAFILKSSSTGPNRYVQPSDILFQKFVPAIVHPGILQTDTAALERYTGRITVRFKKFPGDVSHIKKVQLLAEGAPVMQYLKNDTLTGRLTPEDKMFHFGTLPVQEKADVLEVDHRFIPSVENEPMRLNYTFLDENGAVVNHLPVEVTERETGLPLRLLHGKRIIIEIESYTVIKISVVGWNEDIESGDTDME,not soluble
12,KSNYVRVIPNPKVPTDYPAITIEMNDTVSSEQTIEALKSIERVMQEVESQTIADHGQGMIRDVLSYNRSRTEGRVLVPLVDEEIRPFNTFELARRWREAMPVIPGMKSIKIREQSAGGGDRDEFGYLLFGSNINELNQAGRYLIERLQQEEGLFDISSSIDSGSKEVLLSLAPVAYDLGLDLTMIAQQVGGSFYGGEAQRLIRDGEEIKVMVRYPQLTREAFSSLRYAVITTPAGKKVMLGDVVNISEQPGVSTIRREGGYQTVYVYGSIDEELVEPQEIVKIIDDSILPDMKKLHPSVKTELGGDIEEQAAQRNEQ,not soluble
13,MGSDAFDEMDEIWALYADDGAQALDAMEASLLALQAGEDAAAHVGPLFRAVHTFKGNSRVLGLSVVESRAHLCEDLIGLVRDAGVPMDGEIVEILLFASDTLRAMLEETAASRADVEGTGSEALMDQLRSKIARCSRSHHHHHH,soluble
14,MKDRFELVSKYQPQGDQPKAIEKLVKGIQEGKKHQTLLGATGTGKTFTVSNLIKEVNKPTLVIAHNKTLAGQLYSEFKEFFPNNAVEYFVSYYDYYQPEAYVPQTDTFIEKDASINDEIDKLRHSATSALFERRDVIIIASVSCIYGLGSPEEYREMVVSLRTEMEIERNELLRKLVDIQYARNDIDFQRGTFRVRGDVVEIFPASRDEHCVRVEFFGDEIERIREVDALTGEILGDRDHVAIFPASHFVTRAEKMEKAIQNIEKELEEQLKVMHENGKLLEAQRLEQRTRYDLEMMREMGFCSGIENYSRHLTLRPPGSTPYTLLDYFPDDFMIVVDESHVTIPQVRGMFNGDQARKQVLVDHGFRLPSALDNRPLRFEEFEKHMHNIVYVSATPGPYEIEHTDEMVEQIIRPTGLLDPLIDVRPIEGQIDDLIGEIQARIERNERVLVTTLTKKMSEDLTDYLKEIGIKVNYLHSEIKTLERIEIIRDLRLGKYDVLVGINLLREGLDIPEVSLVAILDADKEGFLRSERSLIQTIGRAARNAEGRVIMYADKITKSMEIAINETKRRREQQERFNEEHGITPKTINKEIRDVIRATVAAEDKAEYKTKAAPKLSKMTKKERQKVVEQMEHEMKEAAKALDFERAAELRDLLLELKAEG,soluble
15,MHHHHHHSSGVDLGTENLYFQSMDVGIVALEIYFPSQYVDQAELEKYDGVDAGKYTIGLGQAKMGFCTDREDINSLCMTVVQNLMERNNLSYDCIGRLEVGTETIIDKSKSVKTNLMQLFEESGNTDIEGIDTTNACYGGTAAVFNAVNWIESSSWDGRYALVVAGDIAVYATGNARPTGGVGAVALLIGPNAPLIFERGLRGTHMQHAYDFYKPDMLSEYPIVDGKLSIQCYLSALDRCYSVYCKKIHAQWQKEGNDKDFTLNDFGFMIFHSPYCKLVQKSLARMLLNDFLNDQNRDKNSIYSGLEAFGDVKLEDTYFDRDVEKAFMKASSELFSQKTKASLLVSNQNGNMYTSSVYGSLASVLAQYSPQQLAGKRIGVFSYGSGLAATLYSLKVTQDATPGSALDKITASLCDLKSRLDSRTGVAPDVFAENMKLREDTHHLVNYIPQGSIDSLFEGTWYLVRVDEKHRRTYARRP,soluble
16,GSSMVTGGMASKWDQKGMDIAYEEALLGYKEGGVPIGGCLINNKDGSVLGRGHNMRFQKGSATLHGEISTLENCGRLEGKVYKDTTLYTTLSPCDMCTGAIIMYGIPRCVIGENVNFKSKGEKYLQTRGHEVVVVDDERCKKLMKQFIDERPQDWFEDIGE,soluble
17,MSPQDTCCPPDSWPALKVDYKPKGKLEDIGKGLKAYVVGNGPRAVIALNDVFGIESGHSKEICDAIADKGFTVVFPDVFRGKPLQVSDMSKLFDELPGWAKQFDYEPALRKDVVEVILPYLHDKLGFKSNDQIALAGFCWGAFMLFHLAGDTKLPGGPFACGVSFHPSVQIEGVFQRDPLQLIDRATCPQLLLPSAGEPDYMKEEGDAIKKLRAKPFGASCGVKTFPSMQHGWVNRGDRNDPQVVKEAQEALQLAVDFMMRHTKPKA,not soluble
18,MDVKMKGIVRVVPYDPEWKTEFLKIKAMIVDCAGDLIIDVVHVGSTAIEGLASKPIIDIDVVIDSYYVFPAVKDRLAKIGFEHEGNLGVEGREAFKRTFVDDFMPYHLYICPKDGKGYLEHIAFRNYLRDHPEAVKAYGELKMRLAEQFRTDITSYVNAKREFVQNVLKKINS,soluble
19,MGSDKIHHHHHHMAQYSAEFKQAKVLVLGDVMLDRYWFGATNRISPEAPVPVVRVQENEERAGGAANVAMNIASLNVPVQLMGLIGQDETGSALSLLLEKQKIDCNFVALETHPTITKLRILSRHQQLLRLDFEEDFNNVDCKDLLAKLESAVKNYGALILSDYGKGTLKDVQKMIQIARKANVPVLIDPKGTDFERYRGATLLTPNMSEFEAVVGKCNTEEEIIEKGLKLISDIELTALLVTRSEKGMTLLRPNQEPYHLPTVAKEVFDVTGAGDTVISVLATALADGRSFEESCYLANVAAGIVVGKLGTSTVSTVELENAIHARPETGFGIMSEAELKDAVAQAKARGEKIVMTNGCFDILHPGHISYLENARKLGDRLIVAVNSDDSVKRLKGESRPINNLENRMAVLAGLASVDWLVPFTEDTPQRLIGEILPDLLVKGGDYKPEEIAGSKEVWANGGDVKVLNFENGCSTTNVIEKIKLLKD,not soluble
20,MSQRKYFGTDGVRGEVGGPVINAAFALRLGYAAGRVLAREHREHASGRGRNRPQVVIGKDTRISGYMLESALEAGLSAAGIDVLLAGPVPTPAVAYLTRTLRLAAGIVISASHNPYQDNGIKFFSAHGMKLPDDIEAAIEQALDEPLGCVGSEELGRARRMADAQGRYIEFCKSTFPHDLDLNGLKLVVDAAHGAAYNVAPHVFRELGAEVHAIGVSPDGFNINKGVGALHPESLAEEVRARGADLGIALDGDADRLQMVDGTGRIYNGDELLYAIVRERMQRGPVAGVVGTLMTNYGLERQLQQIGVGFERANVGDRYVLEQMQARGWLYGGESSGHLLCLDCHTTGDGTIAALQVLTALRRADATLAEWVADLRMYPQKMINVPLAPGLDWKTHDGLARARGAVEAELAGRGRVLIRASGTEPKLRLMVEAEDEALAQASAQKLADSLGA,not soluble
21,MIQAAKIKQLKSLDSDLEKAIGRISGGLYIITAQKGEVKGAMLASWVSQASFNPPGFTVAVAKDRAIESLMQVGDRFVLNILEEGNYQILMKHFLKRFPPGADRFAGVKTQTASNGSPILTDALAYLECEVASRMECSDHWIVYSQVTNGRVAKAEGLTAVHHRKVGNYYLEHHHHHH,soluble
